How the values were obtained:
[1] = target: target antigen of mab 231 on canine lymphoma cells (canine); assay: FACS on canine lymphoma cells positive for the mab 231 antigen, FITC anti-dog IgG secondary
[2] = target: target antigen of mab 231 on canine lymphoma cells (canine); assay: FACS on canine lymphoma cells positive for the mab 231 antigen, anti-mouse IgG secondary

B1: VET118 VET218 anti-canine lymphoma antibody variant (mab 231 variable domains with canine FR4) (antibody)
light: DIQMNQSPSSLSASLGDTITITCHASQNINVWLSWYQQKPGNIPKLLIYKASNLHTGVPSRFSGSGSGTGFTLTISSLQPEDIATYYCQQGQSYPLTFGGGTHLTVLGQPKASPSVTLFPPSSEELGANKATLVCLISDFYPSGVTVAWKADGSPITQGVETTKPSKQSNNKYAASSYLSLTPDKWKSHSSFSCLVTHEGSTVEKKVAPAECS
heavy: EVKLVESGGGLVQPGGSLKLSCATSGFTFSDYYMYWVRQTPEKRLEWVAYISNGGGSTYYPDTVKGRFTISRDNAKNTLYLQMSRLKSEDTAMYYCARHGGYYAMDYWGQGTSVTVSSASTTAPSVFPLAPSCGSTSGSTVALACLVSGYFPEPVTVSWNSGSLTSGVHTFPSVLQSSGLYSLSSMVTVPSSRWPSETFTCNVAHPASKTKVDKPVPKRENGRVPRPPDCPKCPAPEMLGGPSVFIFPPKPKDTLLIARTPEVTCVVVDLDPEDPEVQISWFVDGKQMQTAKTQPREEQFNGTYRVVSVLPIGHQDWLKGKQFTCKVNNKALPSPIERTISKARGQAHQPSVYVLPPSREELSKNTVSLTCLIKDFFPPDIDVEWQSNGQQEPESKYRTTPPQLDEDGSYFLYSKLSVDKSRWQRGDTFICAVMHEALHNHYTQKSLSHSPGK
Q: With B1 as the binder, how does the Binding (%) [1] read?
A: 27.2%

B2: murine anti-canine lymphoma monoclonal antibody mab 231 (ATCC HB-9401) (antibody, V domains shown)
VH: EVKLVESGGGLVQPGGSLKLSCATSGFTFSDYYMYWVRQTPEKRLEWVAYISNGGGSTYYPDTVKGRFTISRDNAKNTLYLQMSRLKSEDTAMYYCARHGGYYAMDYWGQGTSVTVSS
VL: DIQMNQSPSSLSASLGDTITITCHASQNINVWLSWYQQKPGNIPKLLIYKASNLHTGVPSRFSGSGSGTGFTLTISSLQPEDIATYYCQQGQSYPLTFGGGTKLEIK
Q: With B2 as the binder, how does the Binding (%) [2] read?
A: 74.2%
